Measured values as given in patent US20240316143A1, “THERAPEUTIC AGENTS AND/OR PHARMACEUTICAL COMPOSITIONS FOR NEUROCOGNITIVE DISORDERS” (priority 2023, published 2024).
Square brackets hold non-standard residues; d marks the D form. Ends that are not written are not given here. pGlu = O=C1CC[C@@H](C(=O)O)N1

Key:
V1aR receptor (V1aR) = V1aR receptor (V1aR) (Homo sapiens, UniProt P37288); test: V1aR agonist activity of AVP fragments compared with AVP; conditions: no method or data given
[1] = tested on: aged rats and AD model rats
Procedure: The arginine vasopressin (AVP) concentration and AQP4 concentration in the brain are assayed with aged rats and AD model rats. Between placebo groups and intranasal AVP spray groups, the expression amount of AQP4 is assessed and simultaneously amyloid 3 (AB) proteins (and/or tau proteins) are assayed. The assays of AQP4 and AB are carried out with an immunofluorescent-antibody assay. The measured concentration of each of AB (and/or tau) is compared (throughout all the brain and each site) at each time point, i.e., prior to administration, at one week after administration, at one month after administration, and at three months after administration.
In this assay, the comparisons are carried out between the above groups and intravascularly AVP received groups.

Chain of V1aR receptor (V1aR) (P37288 whole entry, species assumed, the tested form may be a part): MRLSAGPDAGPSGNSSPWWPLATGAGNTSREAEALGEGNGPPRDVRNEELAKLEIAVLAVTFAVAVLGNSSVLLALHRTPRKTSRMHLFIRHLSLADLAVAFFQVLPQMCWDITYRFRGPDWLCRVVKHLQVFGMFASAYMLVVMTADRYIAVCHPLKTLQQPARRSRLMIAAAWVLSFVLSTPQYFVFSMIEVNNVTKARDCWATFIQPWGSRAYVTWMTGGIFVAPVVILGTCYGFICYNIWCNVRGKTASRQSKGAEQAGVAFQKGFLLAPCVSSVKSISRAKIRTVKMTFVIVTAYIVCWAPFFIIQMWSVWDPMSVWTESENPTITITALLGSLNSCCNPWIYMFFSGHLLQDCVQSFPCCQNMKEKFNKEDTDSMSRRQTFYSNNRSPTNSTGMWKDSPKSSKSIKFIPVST

Substance	V1aR agonist activity relative to original AVP (V1aR receptor (V1aR))	also measured
8-arginine-vasopressin [AVP]	–	correlation between the concentration of AVP in the brain and the expression amount of AQP4 ([1]; aged rats and AD model rats, intranasal AVP spray vs placebo, immunofluorescent-antibody assay): There is a correlation; correlation of brain AVP concentration and AQP4 expression with the amount of AB reduction ([1]; aged rats and AD model rats, prior to, one week, one month and three months after administration): correlate with the amount of AB reduction; effectiveness of intranasal AVP administration ([1]; compared with placebo groups and intravascularly AVP received groups): effective
AVP (4-8): AVP fragment (QNCPR; Arg-vasopressin; UniProt P01185 23-27, looked up, fragment)	several-fold superior to original AVP	–
AVP (5-8): AVP fragment (NCPR; Arg-vasopressin; UniProt P01185 24-27, looked up, fragment)	several-fold superior to original AVP	–

The next lines start with results.

V1aR agonist activity relative to original AVP (V1aR receptor (V1aR))	Substance	also measured
several-fold superior to original AVP	AVP (5-9): AVP fragment (NCPRG; ends and bridges not checked; UniProt P01185 24-28, looked up, fragment)	–
several-fold superior to original AVP	AVP (4-9): AVP fragment (QNCPRG; ends and bridges not checked; UniProt P01185 23-28, looked up, fragment)	–
several-fold superior to original AVP	pGlu-Asn-Ser-Pro-Arg-Gly-NH2 acetate ([pGlu]NSPRG-NH2; also: acetate salt) [NC1900, AVP fragment]	–
